The record followed here is patent US20230190801A1.

The target in this test is CD38 (human) (UniProt P28907). Description: cell-based or functional assay.

For daratumumab (antibody), the daratumumab-induced fratricide of expanded NK cells (1 µg/mL daratumumab, 4 h, PI flow cytometry) (times lower (g-NK vs cNK)) came to 13 and the g-NK cell-mediated cytotoxicity against daratumumab-treated MM cell lines, correlation with CD38 expression turned out to be 0.92 R^2.
